Reference: patent US20240124560A1

Tests used:
Assay in all cases: cell-based or functional assay
[1] = target: HIV-1 Env of pseudovirus NAC_BG505 (HIV-1)
[2] = target: HIV-1 Env of pseudovirus NIH-069_C1080.c03 (HIV-1)
[3] = target: HIV-1 Env of pseudovirus NIH-042_ZM246F.D5 (HIV-1)
[4] = target: HIV-1 Env of pseudovirus NIH-024_ZM53M.PB12 (HIV-1)
[5] = target: HIV-1 Env of pseudovirus NIH-053_CNE52 (HIV-1)
[6] = target: HIV-1 Env of NIH-066_191084 B7.19 (HIV-1)
[7] = target: HIV-1 Env of pseudovirus NIH-068_620345.c01 (HIV-1)
[8] = target: HIV-1 Env of NIH-046_1394C9G1(Rev.) (HIV-1)
[9] = target: HIV-1 Env of pseudovirus NIH-004_PVO.4 (HIV-1)
[10] = target: HIV-1 Env of NIH-019_Du422.1 (HIV-1)
[11] = target: HIV-1 Env of pseudovirus NIH-106_T250.4 (HIV-1)
[12] = target: HIV-1 Env of pseudovirus NAC_IAVIC22 (HIV-1)
[13] = target: HIV-1 Env of pseudovirus NIH-061_Q259ENVd2.17 (HIV-1)
[14] = target: HIV-1 Env of pseudovirus NAC_MN (HIV-1) (UniProt P05877)
Sequence of HIV-1 Env of pseudovirus NAC_MN (HIV-1) (P05877 32-856): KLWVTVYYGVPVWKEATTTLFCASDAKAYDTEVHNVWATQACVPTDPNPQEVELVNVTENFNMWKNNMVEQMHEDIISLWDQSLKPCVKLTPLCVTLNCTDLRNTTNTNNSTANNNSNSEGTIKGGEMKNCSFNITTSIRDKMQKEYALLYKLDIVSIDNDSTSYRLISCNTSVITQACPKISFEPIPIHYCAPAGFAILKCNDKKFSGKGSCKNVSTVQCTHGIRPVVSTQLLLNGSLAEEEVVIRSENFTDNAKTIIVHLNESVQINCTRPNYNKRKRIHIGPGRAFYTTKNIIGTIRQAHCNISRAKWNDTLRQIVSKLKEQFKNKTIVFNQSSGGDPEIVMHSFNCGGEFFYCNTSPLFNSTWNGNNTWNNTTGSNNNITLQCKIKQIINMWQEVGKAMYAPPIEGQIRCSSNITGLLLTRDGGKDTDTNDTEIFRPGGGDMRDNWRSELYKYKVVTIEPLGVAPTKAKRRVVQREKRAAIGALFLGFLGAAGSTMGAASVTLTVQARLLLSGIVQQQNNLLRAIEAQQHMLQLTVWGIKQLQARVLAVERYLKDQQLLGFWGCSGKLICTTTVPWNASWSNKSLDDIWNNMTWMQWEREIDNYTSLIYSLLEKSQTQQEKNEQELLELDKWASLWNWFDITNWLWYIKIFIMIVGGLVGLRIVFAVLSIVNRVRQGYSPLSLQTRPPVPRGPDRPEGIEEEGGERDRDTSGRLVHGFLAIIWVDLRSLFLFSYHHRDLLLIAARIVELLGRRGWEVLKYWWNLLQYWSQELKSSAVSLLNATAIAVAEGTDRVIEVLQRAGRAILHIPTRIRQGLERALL

[15] = target: HIV-1 Env of pseudovirus NIH-104_3103.v3.c10 (HIV-1)
[16] = target: HIV-1 Env of NAC_SF162 (HIV-1)
[17] = target: HIV-1 Env of NIH-102_6545.v4.c1 (HIV-1)
[18] = target: HIV-1 Env of NIH-051_CNE17 (HIV-1)
[19] = target: HIV-1 Env of NHI-028_CAP210.E8 (HIV-1)
[20] = target: HIV-1 Env of pseudovirus NIH-034_Ce0393 C3 (HIV-1)
[21] = target: HIV-1 Env of NIH-014_6244.13.B5.4567 (HIV-1)
[22] = target: HIV-1 Env of NIH-115_928.28 (HIV-1)
[23] = target: HIV-1 Env of NIH-058_Q23ENV17 (HIV-1)
[24] = target: HIV-1 Env of NAC_TRJO.58 (HIV-1)
[25] = target: HIV-1 Env of NIH-076_CNE5 (HIV-1)
[26] = target: HIV-1 Env of NAC_REJO.67 (HIV-1)
[27] = target: HIV-1 Env of isolate NIH-098_89.F1 2 25 (HIV-1)
[28] = target: HIV-1 Env of isolate NIH-090_A07412M1.vrc12 (HIV-1)
[29] = target: HIV-1 Env of pseudovirus NIH-096_6952.v1.c20 (HIV-1)
[30] = target: HIV-1 Env of isolate NIH-084_X1254 c3 (HIV-1)
[31] = target: HIV-1 Env of pseudovirus NIH-094_3817.v2.c59 (HIV-1)
[32] = target: HIV-1 Env of NIH-015_62357.14.D3.4589 (HIV-1)
[33] = target: HIV-1 Env of pseudovirus NIH-003_SC422661.8 (HIV-1)
[34] = target: HIV-1 Env of NIH-118_T255.34 (HIV-1)
[35] = target: HIV-1 Env of NAC_RHPA4.7 (HIV-1)
[36] = target: HIV-1 Env of isolate NIH-082_X1193 c1 (HIV-1)
[37] = target: HIV-1 Env of pseudovirus NIH-107_T251.18 (HIV-1)
[38] = target: HIV-1 Env of NIH-114_T257.31 (HIV-1)
[39] = target: HIV-1 Env of isolate NIH-086_X2131 C1 B5 (HIV-1)
[40] = target: HIV-1 Env of pseudovirus NIH-074_C4118.c09 (HIV-1)
[41] = target: HIV-1 Env of NAC_KNH1144 (HIV-1)
[42] = target: HIV-1 Env of pseudovirus NIH-080_BJOX025000.01.1 (HIV-1)
[43] = target: HIV-1 Env of pseudovirus NIH-050_CNE21 (HIV-1)
[44] = target: HIV-1 Env of NAC_JRCSF (HIV-1) (UniProt P20871)
Sequence of HIV-1 Env of NAC_JRCSF (HIV-1) (P20871 32-848 limits assumed): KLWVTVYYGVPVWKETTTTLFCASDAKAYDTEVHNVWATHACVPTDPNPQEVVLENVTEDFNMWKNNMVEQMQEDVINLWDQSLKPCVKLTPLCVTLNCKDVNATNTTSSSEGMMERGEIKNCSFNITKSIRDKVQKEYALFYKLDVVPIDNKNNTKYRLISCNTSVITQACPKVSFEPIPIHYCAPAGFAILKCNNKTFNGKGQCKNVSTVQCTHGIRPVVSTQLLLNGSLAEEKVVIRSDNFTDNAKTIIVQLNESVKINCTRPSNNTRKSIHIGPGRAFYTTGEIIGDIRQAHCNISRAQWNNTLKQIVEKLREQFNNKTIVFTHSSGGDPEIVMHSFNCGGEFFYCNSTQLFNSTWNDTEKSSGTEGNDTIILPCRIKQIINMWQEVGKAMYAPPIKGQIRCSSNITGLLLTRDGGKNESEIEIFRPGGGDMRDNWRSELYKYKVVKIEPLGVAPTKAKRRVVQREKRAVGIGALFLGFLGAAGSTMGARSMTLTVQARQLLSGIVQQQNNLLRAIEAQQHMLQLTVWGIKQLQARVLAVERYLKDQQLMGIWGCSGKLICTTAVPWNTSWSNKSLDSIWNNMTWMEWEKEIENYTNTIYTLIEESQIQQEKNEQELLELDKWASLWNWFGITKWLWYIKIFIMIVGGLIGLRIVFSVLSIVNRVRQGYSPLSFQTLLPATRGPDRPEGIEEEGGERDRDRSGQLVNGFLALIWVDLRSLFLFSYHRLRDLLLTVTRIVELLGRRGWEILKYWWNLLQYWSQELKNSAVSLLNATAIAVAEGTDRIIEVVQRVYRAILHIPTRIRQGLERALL

[45] = target: HIV-1 Env of NIH-048_CNE19 (HIV-1)
[46] = target: HIV-1 Env of pseudovirus NIH-018_Du172.17 (HIV-1)
[47] = target: HIV-1 Env of NIH-106_T250.4 (HIV-1)

VRC01 (antibody)
neutralization IC50 [1]: 0.056 µg/mL
neutralization IC50 [2]: 1.4 µg/mL
neutralization IC50 [3]: 10.7 µg/mL
neutralization IC50 [4]: 0.917 µg/mL
neutralization IC50 [5]: 0.142 µg/mL
IC80 neutralization [6]: 0.188 µg/mL
neutralization IC50 [7]: > 50 µg/mL
IC80 neutralization [8]: 1.12 µg/mL
neutralization IC50 [9]: 0.192 µg/mL
IC80 neutralization [10]: > 50 µg/mL
neutralization IC50 [11]: > 50 µg/mL
neutralization IC50 [12]: 0.348 µg/mL
neutralization IC50 [13]: 0.114 µg/mL
neutralization IC50 [14]: 0.01 µg/mL
neutralization IC50 [15]: 1.53 µg/mL
IC80 neutralization [16]: 1.03 µg/mL
IC80 neutralization [17]: > 50 µg/mL
IC80 neutralization [18]: 0.904 µg/mL
IC80 neutralization [19]: > 50 µg/mL
neutralization IC50 [20]: 0.37 µg/mL
IC80 neutralization [21]: 0.193 µg/mL
IC80 neutralization [22]: 0.99 µg/mL
IC80 neutralization [23]: 0.148 µg/mL
IC80 neutralization [24]: 0.223 µg/mL
IC80 neutralization [25]: 0.238 µg/mL
IC80 neutralization [26]: 0.414 µg/mL
IC80 (µg/ml), TZM-bl pseudovirus neutralization [27]: > 50 µg/mL
IC80 (µg/ml), TZM-bl pseudovirus neutralization [28]: 0.216 µg/mL
neutralization IC50 [29]: 0.025 µg/mL
IC80 (µg/ml), TZM-bl pseudovirus neutralization [30]: 0.149 µg/mL
neutralization IC50 [31]: > 50 µg/mL
IC80 neutralization [32]: 6.95 µg/mL
neutralization IC50 [33]: 0.124 µg/mL
IC80 neutralization [34]: 0.925 µg/mL
IC80 neutralization [35]: 0.137 µg/mL
IC80 (µg/ml), TZM-bl pseudovirus neutralization [36]: 0.408 µg/mL
neutralization IC50 [37]: 2.02 µg/mL
IC80 neutralization [38]: 6.57 µg/mL
IC80 (µg/ml), TZM-bl pseudovirus neutralization [39]: 0.284 µg/mL
neutralization IC50 [40]: 0.05 µg/mL
IC80 neutralization [41]: 0.535 µg/mL
neutralization IC50 [42]: 6.04 µg/mL
neutralization IC50 [43]: 0.212 µg/mL
IC80 neutralization [44]: 0.69 µg/mL
IC80 neutralization [45]: 0.512 µg/mL
neutralization IC50 [46]: > 50 µg/mL
IC80 neutralization [47]: > 50 µg/mL

PGZL1 (antibody)
neutralization IC50 [1]: 16.7 µg/mL
neutralization IC50 [2]: 1.73 µg/mL
neutralization IC50 [3]: 19.9 µg/mL
neutralization IC50 [4]: > 50 µg/mL
neutralization IC50 [5]: 24.3 µg/mL
IC80 neutralization [6]: > 50 µg/mL
neutralization IC50 [7]: 12.6 µg/mL
IC80 neutralization [8]: 34.3 µg/mL
neutralization IC50 [9]: 49 µg/mL
IC80 neutralization [10]: 30.5 µg/mL
neutralization IC50 [11]: 13.9 µg/mL
neutralization IC50 [12]: 15.2 µg/mL
neutralization IC50 [13]: > 50 µg/mL
neutralization IC50 [14]: 0.023 µg/mL
neutralization IC50 [15]: > 50 µg/mL
IC80 neutralization [16]: 48.6 µg/mL
IC80 neutralization [17]: > 50 µg/mL
IC80 neutralization [18]: 48.6 µg/mL
IC80 neutralization [19]: > 50 µg/mL
neutralization IC50 [20]: 13.5 µg/mL
IC80 neutralization [21]: 5.19 µg/mL
IC80 neutralization [22]: 5.45 µg/mL
IC80 neutralization [23]: > 50 µg/mL
IC80 neutralization [24]: > 50 µg/mL
IC80 neutralization [25]: > 50 µg/mL
IC80 neutralization [26]: 40.2 µg/mL
IC80 (µg/ml), TZM-bl pseudovirus neutralization [27]: > 50 µg/mL
IC80 (µg/ml), TZM-bl pseudovirus neutralization [28]: > 50 µg/mL
neutralization IC50 [29]: 0.89 µg/mL
IC80 (µg/ml), TZM-bl pseudovirus neutralization [30]: > 50 µg/mL
neutralization IC50 [31]: 20.1 µg/mL
IC80 neutralization [32]: > 50 µg/mL
neutralization IC50 [33]: 16.8 µg/mL
IC80 neutralization [34]: 13.2 µg/mL
IC80 neutralization [35]: > 50 µg/mL
IC80 (µg/ml), TZM-bl pseudovirus neutralization [36]: 21.3 µg/mL
neutralization IC50 [37]: 43 µg/mL
IC80 neutralization [38]: > 50 µg/mL
IC80 (µg/ml), TZM-bl pseudovirus neutralization [39]: 3.5 µg/mL
neutralization IC50 [40]: 8.37 µg/mL
IC80 neutralization [41]: > 50 µg/mL
neutralization IC50 [42]: 7.13 µg/mL
neutralization IC50 [43]: 4.23 µg/mL
IC80 neutralization [44]: > 50 µg/mL
IC80 neutralization [45]: 12.1 µg/mL
neutralization IC50 [46]: 0.424 µg/mL
IC80 neutralization [47]: > 50 µg/mL

4E10 (antibody)
neutralization IC50 [1]: 1.15 µg/mL
neutralization IC50 [2]: 0.328 µg/mL
neutralization IC50 [3]: 1.68 µg/mL
neutralization IC50 [4]: 10.4 µg/mL
neutralization IC50 [5]: 0.954 µg/mL
IC80 neutralization [6]: 9.04 µg/mL
neutralization IC50 [7]: 0.663 µg/mL
IC80 neutralization [8]: 10.4 µg/mL
neutralization IC50 [9]: 9.59 µg/mL
IC80 neutralization [10]: 5.66 µg/mL
neutralization IC50 [11]: 0.756 µg/mL
neutralization IC50 [12]: 1.21 µg/mL
neutralization IC50 [13]: 7.12 µg/mL
neutralization IC50 [14]: 0.005 µg/mL
neutralization IC50 [15]: 8.11 µg/mL
IC80 neutralization [16]: 8.26 µg/mL
IC80 neutralization [17]: 13.3 µg/mL
IC80 neutralization [18]: 2.23 µg/mL
IC80 neutralization [19]: 3.53 µg/mL
neutralization IC50 [20]: 0.606 µg/mL
IC80 neutralization [21]: 0.373 µg/mL
IC80 neutralization [22]: 0.438 µg/mL
IC80 neutralization [23]: 5.37 µg/mL
IC80 neutralization [24]: 11.6 µg/mL
IC80 neutralization [25]: 5.9 µg/mL
IC80 neutralization [26]: 8.62 µg/mL
IC80 (µg/ml), TZM-bl pseudovirus neutralization [27]: 21.7 µg/mL
IC80 (µg/ml), TZM-bl pseudovirus neutralization [28]: 10.4 µg/mL
neutralization IC50 [29]: 0.721 µg/mL
IC80 (µg/ml), TZM-bl pseudovirus neutralization [30]: 11.8 µg/mL
neutralization IC50 [31]: 0.417 µg/mL
IC80 neutralization [32]: 11.6 µg/mL
neutralization IC50 [33]: 2.78 µg/mL
IC80 neutralization [34]: 1.38 µg/mL
IC80 neutralization [35]: 19.3 µg/mL
IC80 (µg/ml), TZM-bl pseudovirus neutralization [36]: 1.43 µg/mL
neutralization IC50 [37]: 0.905 µg/mL
IC80 neutralization [38]: 4.71 µg/mL
IC80 (µg/ml), TZM-bl pseudovirus neutralization [39]: 0.765 µg/mL
neutralization IC50 [40]: 0.322 µg/mL
IC80 neutralization [41]: 47.9 µg/mL
neutralization IC50 [42]: 0.377 µg/mL
neutralization IC50 [43]: 0.513 µg/mL
IC80 neutralization [44]: 3.92 µg/mL
IC80 neutralization [45]: 1.43 µg/mL
neutralization IC50 [46]: 0.102 µg/mL
IC80 neutralization [47]: 3.42 µg/mL
